First the molecules themselves.
B1: CPEB3 Ribozyme (parent)
chain: UAACAGGGGGCCACAGCAGAAGCGUUCACGUCGCAGCCCCUGUCAGAUUCUGGUGAAUCUGCGAAUUCUGCUGUAUAUCUC

In this data set the parent is B1. Briefly: self-cleavage, relative activity (ratio to wild type); higher = more cleavage; in vitro, sequencing. In a few lines:
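CPEB3 self-cleaving ribozyme mutant libraries were made by rounds of error-prone PCR, barcoded, and transcribed in vitro with T7 RNA polymerase for 5 hours at 37°C. Cleavage occurred during transcription and a 15 min DNase I step before EDTA stop. RNAs were reverse transcribed with template switching and Illumina-sequenced, with DNA sequencing mapping barcodes to variants. Relative activity is the variant's cleaved/total read fraction divided by wild type's (minimum 5 reads), averaged across three batches.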
For the variant UAACAGGGGGCCACAGCAGAAGCGUUCAUGUCGCAGCCCCUGUCUGAUUCUGGUGAAUCUGCGAAUUCUGCUGUAUAUCUC [C29U A45U], the self-cleavage was found to be 0.19.
As for UAACAGGGGGCCACAGCAGAAGCGUUCACGUCGCCGCCCCUGUCAGAUUCUGGUGAAUCUGCGAAUUCUGCUGUACAUCUC [A35C U76C], the self-cleavage stood at 0.96.
With UAACAGGGGGCCACAGGAGAAGCGUUCACGUCGCAGCCCCUGUCAGACUCUGGUGAAUCUGCGAAUUCUGCUGUAUAUCUC [C17G U48C], the self-cleavage came to 0.2.
With UAACAGGGGGCCACAGCAGAAGCGUUCACGUCGCAGCCCCUGUCAGUUUCUGGUGAAUCUGCGAAUUCUGCUGUAUACCUC [A47U U78C] the figure was 0.57.
In the case of UAACAGGGGGCCACAGCAGAAGCAUUCACGUCGCAGCCCCUGUCAGAUUCUGGUGAAUCUGCGAAUUCUGCUCUAUAUCUC [G24A G73C], the self-cleavage amounted to 0.4.
Regarding UAACAGGGGGCCACAGCAGAAGCGUUCACGUCGCAGCCCCUUUCAGAUUCUGGUGAAUCAGCGAAUUCUGCUGUAUAUCUC [G42U U60A], the self-cleavage worked out at 0.21.
With UAACAGGGGGCCACAGCAGAAGCGUUCACGUCGCAGCCCCUGUCAGAUUCUGGAGAAUCUGCGAAUUCUGCUGGAUAUCUC [U54A U74G] the figure was 1.3; with UAACAGGGGGCCACGGCAGAAGCGUUCACGUCGCAGCCCCUGUCAGAUUCUGGUGAAUCUGCGGAUUCUGCUGUAUAUCUC [A15G A64G], 0.65; with UAACAGGGGGCCACAGCAGAAGCGUUCACGUCGCAGGCCCUGUCAGAUUCUGGUGAAUCUGCGGAUUCUGCUGUAUAUCUC [C37G A64G], 0.54.
As for UAACAGGGGGCCACAGCAGAAGCGUUCACGUCGCAGCCCCUGUCAGAUUCUGGUGAAUCUGCGAAUUCAGUUGUAUAUCUC [U69A C71U], the figure is 0.33; as for UAACAGGGGGCCACAGCGGAAGCGUUCAUGUCGCAGCCCCUGUCAGAUUCUGGUGAAUCUGCGAAUUCUGCUGUAUAUCUC [A18G C29U], 0.42; as for UAACAGGGGGCCACAGCAGAAGCUUCCACGUCGCAGCCCCUGUCAGAUUCUGGUGAAUCUGCGAAUUCUGCUGUAUAUCUC [G24U U26C], 0.11.
As to UAACAGGGGGCCACAGCAGAAGCGUUCACGUCGCAGCUCCUGUCAGAUUCUGGUGAAUCUGCGAAUUCUGCUGUAUGUCUC [C38U A77G], the self-cleavage was found to be 0.74.
For the variant UAACAGGGGGCCACAGCAGAAGCGUUCACGUCGCAGCCUCUGUCAGACUCUGGUGAAUCUGCGAAUUCUGCUGUAUAUCUC [C39U U48C], the self-cleavage is 0.42.
With UAACAGGGGGGCACAGCAGAAGCGUUCACGUCGCAGCCCCUGUCAGAUUCAGGUGAAUCUGCGAAUUCUGCUGUAUAUCUC [C11G U51A] the figure was 0.31.
For the variant UAACAGGGGGCCACAGCAGAAGUGUUCACGUCGCAGCCCCUGCCAGAUUCUGGUGAAUCUGCGAAUUCUGCUGUAUAUCUC [C23U U43C], the self-cleavage was 0.3.
Regarding UAACAGGGGGCCACAGCAGAAGCGUUCACGUUGCAGCCCCAGUCAGAUUCUGGUGAAUCUGCGAAUUCUGCUGUAUAUCUC [C32U U41A], the self-cleavage was found to be 0.27.
As to UAACAGGGGGCCACAGCAGAACCGUUCACGUCGCAGCCCCUGUCAGAUUCUGGUGAAUCUGCGAAUUCUGCUGUGUAUCUC [G22C A75G], the self-cleavage came to 0.13.
Turning to UAACAGGGGGCCACAGCAGAAGCGUUCAUGUCGCAGCCCCUGUCAGGUUCUGGUGAAUCUGCGAAUUCUGCUGUAUAUCUC [C29U A47G], the self-cleavage turned out to be 0.55.
Take UAACAGGGGGCCACAGCAGAUGCGUUCACGUCGCGGCCCCUGUCAGAUUCUGGUGAAUCUGCGAAUUCUGCUGUAUAUCUC [A21U A35G]: the self-cleavage was 1.03.
Turning to UAACAGGGGGCCACAGCAGAAGCGUUCACGUCGCAGCCCCUGACAGAUUCUGGUGAAUCUGCGAAUUCUGCUGAAUAUCUC [U43A U74A], the self-cleavage was 1.35.
As for UAACAGGGGGCCACAGCAGAAGCGUUCACGUCGCAGCCCCUGUCAGAUUCUGGUGAAUCUACGAAUUCUGCUGUAUUUCUC [G61A A77U], the self-cleavage was 0.98.
With UAACAGGGGGCCACAGCAGAAGCGUUCAAGUCGCAGCCCCUGUCAGAUUCUGGUGAAUCUGCGAAUUCGGCUGUAUAUCUC [C29A U69G], the self-cleavage was found to be 0.22.
As for UAACAGGGGGCCACAGCAGAAGUGUUCACGUCGCAGCCCCUGUCGGAUUCUGGUGAAUCUGCGAAUUCUGCUGUAUAUCUC [C23U A45G], the figure is 0.25; as for UAACAGGGGGCCACAGCAGAGGCGUUCACGUCGCAGCCCCUGUCAGAUUCUGGUGAAUCUGCGAAUUCUGCUGUUUAUCUC [A21G A75U], 0.72; as for UAACAGGGGGCCCCAGCAGAUGCGUUCACGUCGCAGCCCCUGUCAGAUUCUGGUGAAUCUGCGAAUUCUGCUGUAUAUCUC [A13C A21U], 0.49.
As for UAACGGGGGGCCACAGCAGAAGCGUUCACGUCGCAGUCCCUGUCAGAUUCUGGUGAAUCUGCGAAUUCUGCUGUAUAUCUC [A5G C37U], the self-cleavage is 0.63.
For the variant UAACAGGGGGCCACAGCAGAAGCGUGCACGUCGCAGCCCCUGUCAGAUUCUGGUGAAUCUGCGAAUUCUGCUGCAUAUCUC [U26G U74C], the self-cleavage was found to be 0.39.
Turning to UAACAGGGGGCCACAGCAGAAGCGUUCCCGUCGCAGCCCCUGUCAGAUUCUGGUGAAUCUGCGAAUUCAGCUGUAUAUCUC [A28C U69A], the self-cleavage stood at 0.17.
As for UAACAGGGGGCCACAGCAGAAGCGUUCACGUCGCAGCCCCUGUCAGAUUCUGAUGUAUCUGCGAAUUCUGCUGUAUAUCUC [G53A A56U], the figure is 0.79; as for UAACAGGGUGCCACAGCAGAAGCGUUCACGUCGCAGCCCCUGUCAGAUUCUGGUGAAUCUGCGAAUUCUGCAGUAUAUCUC [G9U U72A], 0.09.
In the case of UAACAGGGGGCCACAGCAGAAGCGUUCACGUCGCAGCCCCUGUCAGAUUCUGGUGAAUCUGCGAAUUCUGCGGUACAUCUC [U72G U76C], the self-cleavage came out at 0.97.
As for UAACGGGGGGCCACAGCAGAAGCGUGCACGUCGCAGCCCCUGUCAGAUUCUGGUGAAUCUGCGAAUUCUGCUGUAUAUCUC [A5G U26G], the self-cleavage worked out at 0.55.
For UAACAGGGGGCCAAAGCAAAAGCGUUCACGUCGCAGCCCCUGUCAGAUUCUGGUGAAUCUGCGAAUUCUGCUGUAUAUCUC [C14A G19A], the self-cleavage came to 0.29.

Values taken from the RNAGym collection of RNA variant scans (doi:10.1093/nar/gkz1192).
